Experimental data reported in patent US6541008 (UNIVERSITY OF OTAGO, dated 2003).

Columns and labels:
[1] = biological target: T1, VEGFR-1-Ig (human, UniProt P17948 27-758); assay: not described; told in Example 3 with the receptor-Ig precipitations
T1 construct: extracellular domain; also called soluble Ig-fusion protein containing the extracellular domain of human VEGFR-1; not shown: Fc portion of human IgG1

[2] = biological target: chimeric receptor consisting of the extracellular domain of mouse VEGFR-2 and the transmembrane and … (mouse, UniProt P35918 20-762; P14753 250-507, limits assumed); assay: cell-based or functional assay
[3] = biological target: T2, VEGFR-3-Ig (human, UniProt P35916 25-775); assay: precipitation of 35S-labeled conditioned medium with receptor-Ig on protein A-Sepharose, SDS-PAGE, phosphorimager
T2 construct: extracellular domain; also called soluble Ig-fusion protein containing the extracellular domain of human VEGFR-3; not shown: Fc portion of human IgG1
T2 sequence (looked up): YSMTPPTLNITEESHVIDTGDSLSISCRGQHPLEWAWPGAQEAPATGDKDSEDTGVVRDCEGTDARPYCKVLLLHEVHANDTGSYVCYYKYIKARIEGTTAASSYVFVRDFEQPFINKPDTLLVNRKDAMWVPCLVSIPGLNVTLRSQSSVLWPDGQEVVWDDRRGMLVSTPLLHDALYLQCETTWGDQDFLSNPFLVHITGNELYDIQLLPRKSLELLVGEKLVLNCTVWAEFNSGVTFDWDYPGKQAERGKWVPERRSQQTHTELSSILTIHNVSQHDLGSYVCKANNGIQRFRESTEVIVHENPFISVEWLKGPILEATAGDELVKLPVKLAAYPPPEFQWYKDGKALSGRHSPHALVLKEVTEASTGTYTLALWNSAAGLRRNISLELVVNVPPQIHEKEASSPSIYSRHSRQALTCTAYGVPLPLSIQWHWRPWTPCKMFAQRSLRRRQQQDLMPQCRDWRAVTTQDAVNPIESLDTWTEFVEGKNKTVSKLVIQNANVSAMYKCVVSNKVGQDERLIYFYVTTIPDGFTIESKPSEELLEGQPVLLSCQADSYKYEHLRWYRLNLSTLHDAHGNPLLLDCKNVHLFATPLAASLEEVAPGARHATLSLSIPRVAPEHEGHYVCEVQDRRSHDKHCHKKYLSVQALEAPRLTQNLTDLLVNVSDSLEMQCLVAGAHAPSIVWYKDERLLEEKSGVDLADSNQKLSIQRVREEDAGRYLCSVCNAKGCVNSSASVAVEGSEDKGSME
Procedure: (§1) To further assess the interactions between ORFV2-VEGF and the VEGFRs, ORFV2-VEGF was tested for its capacity to bind to soluble Ig-fusion proteins containing the extracellular domains of human VEGFR-1, VEGFR-2 and VEGFR-3. The fusion proteins, designated VEGFR-1-Ig, VEGFR-2-Ig and VEGFR-3-Ig, were transiently expressed in 293 EBNA cells. All Ig fusion proteins were human VEGFRs. Cells were incubated for 24 hours after transfection, washed with DMEM containing 0.2% bovine serum albumin and starved for 24 hours. The fusion proteins were then precipitated from the clarified conditioned medium using protein A-Sepharose beads. The beads were combined with 100 µl of 10x binding buffer (5% bovine serum albumin, 0.2% Tween 20 and 10 µg/ml heparin) and 900 µl of conditioned medium from 293 cells that had been transfected with expression plasmids encoding VEGF, VEGF-DΔNΔC,ORFV2-VEGF or control vector, then metabolically labeled with ^35S-cysteine/methionine for 4 to 16 hours. After 2.5 hours, at room temperature, the Sepharose beads were washed 3 times with binding buffer at 4° C., once with phosphate buffered saline and boiled in SDS-PAGE buffer. Labeled proteins that were bound to the Ig-fusion proteins were analyzed by SDS-PAGE under reducing conditions. Radiolabeled proteins were detected using a phosphorimager analyzer.

[4] = biological target: T3, VEGFR-2-Ig (human, UniProt P35968 20-764); assay: as above
T3 construct: extracellular domain; also called soluble Ig-fusion protein containing the extracellular domain of human VEGFR-2; not shown: Fc portion of human IgG1
Procedure: as §1

[5] = biological target: T1, VEGFR-1-Ig; assay: as above
Procedure: as §1

T1 sequence (P17948 27-758): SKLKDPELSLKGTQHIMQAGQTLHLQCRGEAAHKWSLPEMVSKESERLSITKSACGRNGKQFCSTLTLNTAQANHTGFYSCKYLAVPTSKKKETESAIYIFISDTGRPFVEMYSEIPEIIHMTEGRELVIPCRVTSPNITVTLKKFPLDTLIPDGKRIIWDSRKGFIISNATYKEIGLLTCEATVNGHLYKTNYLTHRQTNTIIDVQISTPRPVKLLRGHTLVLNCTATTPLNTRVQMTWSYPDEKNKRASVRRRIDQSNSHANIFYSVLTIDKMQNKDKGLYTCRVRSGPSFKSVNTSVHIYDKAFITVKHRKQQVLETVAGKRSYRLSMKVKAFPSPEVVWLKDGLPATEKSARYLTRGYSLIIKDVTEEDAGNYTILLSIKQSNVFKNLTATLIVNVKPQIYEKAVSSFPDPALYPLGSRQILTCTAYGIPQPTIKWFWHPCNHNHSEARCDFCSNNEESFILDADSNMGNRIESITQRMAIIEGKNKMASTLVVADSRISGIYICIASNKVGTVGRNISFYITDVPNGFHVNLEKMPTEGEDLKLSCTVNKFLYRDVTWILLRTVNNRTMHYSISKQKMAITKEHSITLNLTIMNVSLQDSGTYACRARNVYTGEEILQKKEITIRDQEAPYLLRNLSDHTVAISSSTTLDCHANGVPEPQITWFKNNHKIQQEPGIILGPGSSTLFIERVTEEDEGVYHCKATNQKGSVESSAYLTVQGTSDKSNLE
T3 sequence (P35968 20-764): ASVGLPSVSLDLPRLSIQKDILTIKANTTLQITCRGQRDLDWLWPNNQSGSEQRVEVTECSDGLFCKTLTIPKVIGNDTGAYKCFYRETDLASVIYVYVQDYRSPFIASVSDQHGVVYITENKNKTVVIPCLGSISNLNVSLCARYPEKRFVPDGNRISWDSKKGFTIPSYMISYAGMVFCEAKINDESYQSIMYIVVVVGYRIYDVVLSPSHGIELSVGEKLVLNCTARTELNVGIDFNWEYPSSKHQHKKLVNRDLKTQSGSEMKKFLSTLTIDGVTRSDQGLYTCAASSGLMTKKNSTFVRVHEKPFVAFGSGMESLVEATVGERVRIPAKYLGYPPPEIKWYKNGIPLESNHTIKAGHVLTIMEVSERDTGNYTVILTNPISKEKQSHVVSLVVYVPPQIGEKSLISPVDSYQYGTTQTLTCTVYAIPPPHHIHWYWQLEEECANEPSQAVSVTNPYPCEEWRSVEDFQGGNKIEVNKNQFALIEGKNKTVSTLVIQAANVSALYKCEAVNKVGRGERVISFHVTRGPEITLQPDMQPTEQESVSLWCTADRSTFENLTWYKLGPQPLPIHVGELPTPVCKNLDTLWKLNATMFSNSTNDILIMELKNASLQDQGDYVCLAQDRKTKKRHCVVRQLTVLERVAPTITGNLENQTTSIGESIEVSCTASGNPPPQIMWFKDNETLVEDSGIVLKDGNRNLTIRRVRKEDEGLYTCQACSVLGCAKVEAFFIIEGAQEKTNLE
Sequence of chimeric receptor consisting of the extracellular domain of mouse VEGFR-2 and the transmembrane and … (P35918 other isoform, or with tags, fused parts or gaps mutant limits assumed): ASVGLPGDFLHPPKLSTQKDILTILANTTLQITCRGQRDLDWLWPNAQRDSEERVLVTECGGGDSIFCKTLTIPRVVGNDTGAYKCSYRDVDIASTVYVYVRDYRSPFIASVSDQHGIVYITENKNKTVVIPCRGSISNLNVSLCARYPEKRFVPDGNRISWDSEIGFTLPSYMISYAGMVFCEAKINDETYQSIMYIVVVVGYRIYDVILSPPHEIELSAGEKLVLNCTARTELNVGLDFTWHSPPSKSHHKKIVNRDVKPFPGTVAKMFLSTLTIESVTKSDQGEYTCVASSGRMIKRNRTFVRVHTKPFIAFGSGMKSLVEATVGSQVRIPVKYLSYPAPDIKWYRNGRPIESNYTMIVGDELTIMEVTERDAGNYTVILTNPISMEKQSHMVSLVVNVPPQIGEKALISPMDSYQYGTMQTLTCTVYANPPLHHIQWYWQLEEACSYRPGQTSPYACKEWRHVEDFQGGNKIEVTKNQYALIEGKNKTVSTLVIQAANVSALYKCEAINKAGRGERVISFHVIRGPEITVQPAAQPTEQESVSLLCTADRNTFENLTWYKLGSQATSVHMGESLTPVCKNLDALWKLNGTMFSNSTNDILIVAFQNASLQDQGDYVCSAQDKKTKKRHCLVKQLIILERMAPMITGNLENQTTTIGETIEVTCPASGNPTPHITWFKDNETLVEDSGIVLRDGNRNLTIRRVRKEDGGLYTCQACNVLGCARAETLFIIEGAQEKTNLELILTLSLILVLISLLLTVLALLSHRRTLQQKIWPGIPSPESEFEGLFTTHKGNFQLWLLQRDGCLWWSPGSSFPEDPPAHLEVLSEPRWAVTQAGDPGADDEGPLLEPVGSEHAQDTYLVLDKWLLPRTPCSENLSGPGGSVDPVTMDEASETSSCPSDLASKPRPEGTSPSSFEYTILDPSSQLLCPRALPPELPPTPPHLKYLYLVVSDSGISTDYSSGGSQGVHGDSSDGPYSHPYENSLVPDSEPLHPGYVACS

B1: FLAG-tagged NZ10 (ligand)
chain: DSTKTWSEVFESSKCKPRPTVVPVGEAHPELTSQRFNPQCVTVMRCGGCCNDESLECVPTEEANVTMQLMGASVSGGNGMQHLIFVEHKKCDCKPRLTTTPPTTTRPPRRRR
notes: Disulfide-linked homodimer, secreted from 293EBNA-1 cells and purified on M2-gel; also called ORFV10-VEGF; not shown: FLAG octapeptide at the C-terminus
[1]
  binding result: no binding

B2: FLAG-tagged ORFV2-VEGF (ligand)
chain: DSNTKGWSEVLKGSECKPRPIVVPVSETHPELTSQRFNPPCVTLMRCGGCCNDESLECVPTEEVNVTMELLGASGSGSNGMQRLSFVEHKKCDCRPRFTTTPPTTTRPPRRRR
notes: Disulfide-linked homodimer, glycosylated; Expressed in COS or 293EBNA cells; also called NZ2; ORVF2-VEGF; not shown: FLAG octapeptide at the C-terminus
[2]
  potency in the Ba/F3 VEGFR-2-EpoR bioassay compared to mouse VEGF: ~4 fold less potent than mouse VEGF
[3]
  binding result: no binding
[4]
  binding result: binds
[5]
  binding result: no binding

B3: mouse VEGF164 (ligand, UniProt Q00731-2 27-190, looked up)
chain: APTTEGEQKSHEVIKFMDVYQRSYCRPIETLVDIFQEYPDEIEYIFKPSCVPLMRCAGCCNDEALECVPTSESNITMQIMRIKPHQSQHIGEMSFLQHSRCECRPKKDRTKPENHCEPCSERRKHLFVQDPQTCKCSCKNTDSRCKARQLELNERTCRCDKPRR
[3]
  binding result: no binding
[4]
  binding result: binds
[5]
  binding result: binds
